Consider one substance from paper PMC2229597.

Read-outs that look alike come from different tables or passages of the source.

The Ki is a dissociation constant, usually derived from enzyme kinetics or from competition with a known ligand. The low end stands for a stronger hold on the target, the high end for a looser hold on the target. Broadly, the Kd is the free concentration of one partner at which half of the binding sites on the other are occupied at equilibrium, for simple one-to-one binding.

For test [1], the target named is CNGA2 mutant channel 2-D316C (UniProt Q00195).
Test [2] has as its target CNGA2 mutant channel 2-Y321C modified with MTSET (UniProt Q00195).
Test [3] addresses CNGA2 mutant channel 2-Y321C modified with MTSES (UniProt Q00195).
Test [4] addresses CNGA3 double mutant channel 3-N361D/R366Y (UniProt Q29441).
Test [5] addresses CNGA3 mutant channel 3-R366Y (UniProt Q29441).
For test [6], the target named is CNGA3 mutant channel 3-N361D (UniProt Q29441).
For test [7], the target named is homomeric CNG channel composed of olfactory CNGA2 (UniProt Q00195). Put plainly: patch-clamp electrophysiology. Background: In patch-clamp work, channel activity is measured electrically.
Test [8] deals with CNGA2 mutant channel 2-Y321R (UniProt Q00195).
The target in test [9] is CNGA2 mutant channel 2-D316N (UniProt Q00195).
Test [10] has as its target heteromeric CNG channel containing CNGA2 and CNGA4 (UniProt Q00195). Put plainly: patch-clamp electrophysiology.
The target in test [11] is homomeric CNG channel composed of olfactory CNGA2 (UniProt Q00195). Put plainly: patch-clamp electrophysiology. This is another data set of the same source.
Test [12] has as its target CNGA2 mutant channel 2-S301F (UniProt Q00195). Nature of the test: patch-clamp electrophysiology.
Test [13] deals with CNGA2 mutant channel 2-E325K (UniProt Q00195). Put plainly: patch-clamp electrophysiology.
The target in test [14] is CNGA2 mutant channel 2-T308S (UniProt Q00195). Put plainly: patch-clamp electrophysiology.
Test [15] concerns the target homomeric CNG channel composed of olfactory CNGA2 (UniProt Q00195). Nature of the test: patch-clamp electrophysiology. The source holds these as a separate data set.

As to Pseudechetoxin (natural protein), the block of current by 500 nM PsTx, outside-out patches from oocytes in test [1] turned out to be 33%. The block of current by 500 nM PsTx after modification of the patch with MTSET in [2] was determined as 81%. Further, the block of current by 500 nM PsTx after modification of the patch with MTSES in [3] was found to be 93%. This substance gave an inhibition of current by 500 nM PsTx, outside-out patches from oocytes (n = 4) in test [4] of 84%. In test [5], this substance displayed an inhibition of current by 500 nM PsTx, outside-out patches from oocytes of 2%. Also, in [6], the inhibition of current by 500 nM PsTx, outside-out patches from oocytes (n = 9) was found to be 15%. Also, the Ki in test [7] was determined as 180 nM; in test [11], 32 nM; in test [12], 16 nM; in test [13], 123 nM; in test [14] it was 16 nM; in [15], 24 nM. The inhibition of current by 500 nM PsTx at −60 mV, outside-out patches from oocytes in [8] and in [9] was below 5% in each case. This substance also had a Kd in [10] of 100 nM. The substance further gave a time constant of wash-off (dissociation) in test [11] of 67 s.
